Where a chain is given by its changes, count along the chain named.
B1: ePGDM13 (antibody, V domains shown)
VH: QAQLVQSGPEVRKPGTSVKVSCKNPGNTLTTYDLHWVRQVPGQGLQWMGWISHEGDKKVIVERFKAKVTIDWDRSTNTAYLQLSGLTSEDTAVYYCAKGSKHRLRDYALYDEDGALNWAVDVDYLANLEFWGQGTAVTVSS
VL: DIVLTQSPLSLSVTPGESASISCKSSHSLQHGDRNNYLAWYVQKPGRSPQLLLDLASERASGVPDRFSGSGSEKDFTLKISRVETEDVGTYYCMQGRESPWTFGQGTKVDIK
B2: ePGDM9 (antibody, V domains shown)
VH: B1 VH
VL: B1 VL with H27Q, Q30I, L53I, E73R
B3: PGDM1400 (antibody, V domains shown)
VH: B1 VH with A2V, Q3H, V5T, N24A, T30K, Q39S, E89G, E112D, A126S
VL: B1 VL with I2F, L9H, Q30I, L53I, D54Y, E58S, E73D
B4: ePGDM5 (antibody, V domains shown)
VH: B1 VH
VL: B1 VL with I2F, S26D, L53I, E73R, S81D, T85A

Columns and labels:
Experiment in all cases: cell-based or functional assay
[1] = biological target: HIV Env of isolate 7030102001E5(Rev-) (clade C) (HIV)
[2] = biological target: HIV Env of isolate HIV-001428-2.42 (clade C) (HIV)
[3] = biological target: HIV Env of isolate 3817.v2.c59 (clade CD) (HIV)
[4] = biological target: HIV Env of isolate T255-34 (clade AG) (HIV)
[5] = biological target: HIV Env of isolate 1006_11_C3_1601 (clade B) (HIV)
[6] = biological target: HIV Env of isolate ZM53M.PB12 (clade C) (HIV)
[7] = biological target: HIV Env of isolate RHPA4259.7 (clade B) (HIV)
[8] = biological target: HIV Env of isolate CAP45.2.00.G3 (clade C) (HIV)
[9] = biological target: HIV Env of isolate CAP210.2.00.E8 (clade C) (HIV)
[10] = biological target: HIV Env of isolate Ce0393_C3 (clade C) (HIV)
[11] = biological target: HIV Env of isolate Ce1176_A3 (clade C) (HIV)
[12] = biological target: HIV Env of isolate Du172.17 (clade C) (HIV)
[13] = biological target: HIV Env, isolate SC422661.8 (HIV)
[14] = biological target: HIV Env, isolate Ce2060_G9 (HIV)
HIV Env, isolate CNE20 = HIV Env, isolate CNE20 (HIV)
[15] = biological target: HIV Env, isolate RHPA4259.7 (HIV)
[16] = biological target: HIV Env, isolate 1006_11_C3_1601 (HIV)
[17] = biological target: HIV Env, isolate Ce1172_H1 (HIV)
HIV Env, isolate CNE52 = HIV Env, isolate CNE52 (HIV)

Binder	IC50 (µg/ml) with constrains [1] [µg/mL]	IC50 (µg/ml) with constrains [2] [µg/mL]	IC50 (µg/ml) with constrains [3] [µg/mL]	IC50 (µg/ml) with constrains [4] [µg/mL]	IC80 (µg/ml) with constrains [4] [µg/mL]	IC50 (µg/ml) with constrains [5] [µg/mL]	IC50 (µg/ml) with constrains [6] [µg/mL]	IC50 (µg/ml) with constrains [7] [µg/mL]	IC50 (µg/ml) with constrains [8] [µg/mL]	IC50 (µg/ml) with constrains [9] [µg/mL]	IC50 (µg/ml) with constrains [10] [µg/mL]	IC50 (µg/ml) with constrains [11] [µg/mL]	IC50 (µg/ml) with constrains [12] [µg/mL]	IC80 (µg/ml) with constrains [13] [µg/mL]	IC80 (µg/ml) with constrains [14] [µg/mL]	IC80 (µg/ml) with constrains (HIV Env, isolate CNE20) [µg/mL]	IC80 (µg/ml) with constrains [15] [µg/mL]	IC80 (µg/ml) with constrains [16] [µg/mL]	IC80 (µg/ml) with constrains [17] [µg/mL]	IC80 (µg/ml) with constrains (HIV Env, isolate CNE52) [µg/mL]
B1	> 100	0.003	14	0.007	0.029	0.826	0.005	0.358	0.002	0.135	0.006	0.031	1.5							
B2	> 100	0.002	0.16	0.002	0.008	0.588	0.006	0.145	0.001	0.055	0.004	0.022	0.865							
B3														62.8	0.099	0.021	1.96	7.43	0.872	> 100
B4														5.33	0.044	0.015	1.86	1.89	0.065	24.6

From patent US20230134571A1 (INTERNATIONAL AIDS VACCINE INITIATIVE, published 2023)
